Test results as given in the supplement of paper PMC10567573.

B1: HDAC6 (parent)
chain: YVHHQALLDVKNIAHQNKFGEDMP

Variants of: B1
Test: protein stability index of a GFP-peptide fusion (GPS, HEK-293T) (PSI 1-6); higher = more stable
Conditions: c terminus: a fixed tail appended
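Also: lentivirally expressed fusions sorted by FACS into six bins by GFP to DsRed ratio, PSI derived from sequencing read proportions per bin multiplied by bin number.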

Variant	protein stability index
YVHHQPLLDVKNIAHQNKFGEDMP	1.69
YVHHQLLLDVKNIAHQNKFGEDMP	1.58
YVHHQHLLDVKNIAHQNKFGEDMP	1.86
YVHHQKLLDVKNIAHQNKFGEDMP	1.64
YVHHQELLDVKNIAHQNKFGEDMP	2.17
YVHHQRLLDVKNIAHQNKFGEDMP	2.07
YVHHQSLLDVKNIAHQNKFGEDMP	2.41
YVHHQWLLDVKNIAHQNKFGEDMP	2.7
YVHHQNLLDVKNIAHQNKFGEDMP	1.84
YVHHQFLLDVKNIAHQNKFGEDMP	1.4
YVHHQTLLDVKNIAHQNKFGEDMP	1.97
YVHHQMLLDVKNIAHQNKFGEDMP	1.96
YVHHQCLLDVKNIAHQNKFGEDMP	1.71
YVHHQVLLDVKNIAHQNKFGEDMP	1.86
YVHHQYLLDVKNIAHQNKFGEDMP	2.07
YVHHQDLLDVKNIAHQNKFGEDMP	2.22
YVHHQILLDVKNIAHQNKFGEDMP	3.2
YVHHQQLLDVKNIAHQNKFGEDMP	1.86
YVHHQGLLDVKNIAHQNKFGEDMP	2.65
YVHHGALLDVKNIAHQNKFGEDMP	1.87
YVHHEALLDVKNIAHQNKFGEDMP	2.16
YVHHHALLDVKNIAHQNKFGEDMP	2.19
YVHHVALLDVKNIAHQNKFGEDMP	1.85
YVHHPALLDVKNIAHQNKFGEDMP	1.71

Variant	protein stability index
YVHHAALLDVKNIAHQNKFGEDMP	2.4
YVHHDALLDVKNIAHQNKFGEDMP	2.08
YVHHRALLDVKNIAHQNKFGEDMP	2
YVHHKALLDVKNIAHQNKFGEDMP	2.02
YVHHSALLDVKNIAHQNKFGEDMP	1.76
YVHHLALLDVKNIAHQNKFGEDMP	1.75
YVHHMALLDVKNIAHQNKFGEDMP	2.21
YVHHNALLDVKNIAHQNKFGEDMP	1.79
YVHHCALLDVKNIAHQNKFGEDMP	1.36
YVHHTALLDVKNIAHQNKFGEDMP	1.95
YVHHYALLDVKNIAHQNKFGEDMP	2.35
YVHHWALLDVKNIAHQNKFGEDMP	3.05
YVHHIALLDVKNIAHQNKFGEDMP	1.88
YVHHQADLDVKNIAHQNKFGEDMP	2.61
YVHHQASLDVKNIAHQNKFGEDMP	2.31
YVHHQAHLDVKNIAHQNKFGEDMP	2.25
YVHHQAYLDVKNIAHQNKFGEDMP	2.53
YVHHQAGLDVKNIAHQNKFGEDMP	2.33
YVHHQAPLDVKNIAHQNKFGEDMP	2.73
YVHHQACLDVKNIAHQNKFGEDMP	1.97
YVHHQAQLDVKNIAHQNKFGEDMP	2.14
YVHHQAKLDVKNIAHQNKFGEDMP	1.9
YVHHQAMLDVKNIAHQNKFGEDMP	2.32
YVHHQATLDVKNIAHQNKFGEDMP	2.18

Variant	protein stability index
YVHHQAALDVKNIAHQNKFGEDMP	1.89
YVHHQAFLDVKNIAHQNKFGEDMP	2.39
YVHHQAWLDVKNIAHQNKFGEDMP	2.77
YVHHQANLDVKNIAHQNKFGEDMP	2.4
YVHHQAELDVKNIAHQNKFGEDMP	2.88
YVHHQAVLDVKNIAHQNKFGEDMP	2.21
YVHHQAILDVKNIAHQNKFGEDMP	1.83
YVHHQARLDVKNIAHQNKFGEDMP	1.8
YVHSQALLDVKNIAHQNKFGEDMP	1.64
YVHTQALLDVKNIAHQNKFGEDMP	1.47
YVHRQALLDVKNIAHQNKFGEDMP	1.74
YVHQQALLDVKNIAHQNKFGEDMP	2.61
YVHPQALLDVKNIAHQNKFGEDMP	3.02
YVHVQALLDVKNIAHQNKFGEDMP	1.95
YVHWQALLDVKNIAHQNKFGEDMP	3.43
YVHNQALLDVKNIAHQNKFGEDMP	1.65
YVHYQALLDVKNIAHQNKFGEDMP	1.78
YVHHQALLLVKNIAHQNKFGEDMP	2.25
YVHHQALLMVKNIAHQNKFGEDMP	1.76
YVHHQALLEVKNIAHQNKFGEDMP	2.4
YVHHQALLHVKNIAHQNKFGEDMP	2.56
YVHHQALLGVKNIAHQNKFGEDMP	1.85
YVHHQALLCVKNIAHQNKFGEDMP	2.38
YVHHQALLAVKNIAHQNKFGEDMP	3.21

Variant	protein stability index
YVHHQALLFVKNIAHQNKFGEDMP	2.23
YVHHQALLIVKNIAHQNKFGEDMP	3.33
YVHHQALLKVKNIAHQNKFGEDMP	2.67
YVHHQALFDVKNIAHQNKFGEDMP	3.34
YVHHQALPDVKNIAHQNKFGEDMP	2
YVHHQALIDVKNIAHQNKFGEDMP	1.65
YVHHQALTDVKNIAHQNKFGEDMP	2.44
YVHHQALVDVKNIAHQNKFGEDMP	1.75
YVHHQALYDVKNIAHQNKFGEDMP	2.32
YVHHQALGDVKNIAHQNKFGEDMP	2.09
YVHHQALQDVKNIAHQNKFGEDMP	2.4
YVHHQALHDVKNIAHQNKFGEDMP	2.72
YVHHQALCDVKNIAHQNKFGEDMP	2.43
YVHHQALDDVKNIAHQNKFGEDMP	2.71
YVHHQALADVKNIAHQNKFGEDMP	1.93
YVHHQALSDVKNIAHQNKFGEDMP	2.39
YVHHQALMDVKNIAHQNKFGEDMP	1.95
YVHHQALWDVKNIAHQNKFGEDMP	1.81
YVHHQALNDVKNIAHQNKFGEDMP	2.71
YVHHQALRDVKNIAHQNKFGEDMP	2.06
YVHHQALEDVKNIAHQNKFGEDMP	2.87
YVHHQALKDVKNIAHQNKFGEDMP	2.31
